Test results published in PMC10672034, “Characterization of a Type II L-Asparaginase from the Halotolerant Bacillus subtilis CH11” (Life, 2023).

B1: L-ASNasaZP21 (type II L-asparaginase, ansZP21) (Bacillus subtilis subsp. subtilis str. 168; S21P) (protein)
chain: PHSPETKESPKEKAQTQKVSSASASEKKDLPNIRILATGGTIAGADQSKTSTTEYKAGVVGVESLIEAVPEMKDIANVSGEQIVNVGSTNIDNKILLKLAKRINHLLASDDVDGIVVTHGTDTLEETAYFLNLTVKSDKPVVIVGSMRPSTAISADGPSNLYNAVKVAGAPEAKGKGTLVVLNDRIASARYVTKTNTTTTDTFKSEEMGFVGTIADDIYFNNEITRKHTKDTDFSVSNLDELPQVDIIYGYQNDGSYLFDAAVKAGAKGIVFAGSGNGSLSDAAEKGADSAVKKGVTVVRSTRTGNGVVTPNQDYAEKDLLASNSLNPQKARMLLMLALTKTNDPQKIQAYFNEY
notes: signal peptide and Cys20 (first 60 bp) removed; E. coli BL21(DE3)pLysS; homotetramer 155 kDa; forward primer encodes …

Experiments:
[1] = biological target: L-ASNasaZP21 (N-terminally truncated type II L-asparaginase of Bacillus subtilis CH11) (Bacillus subtilis CH11) (UniProt O34482); experiment: SEC; HiPrep 16/60 Sephacryl S-200 HR, 50 mM Tris-HCl, 100 mM NaCl, pH 8.5, 0.5 mL/min; molecular weight from a standard curve (Protein Standard Mix 15-600 kDa), semi-log graph
[2] = substrate: NC(=O)C[C@H](N)C(=O)O; experiment: Nessler ammonia assay, Lineweaver-Burk plot; format: biochemical, Bacillus subtilis; settings: pH 9, 60 °C, 10 min, 2-14 mM substrate

Molecule	stoichiometry N [1]	Km [2] [mM]
L-ASNasaZP21 (N-terminally truncated type II L-asparaginase of Bacillus subtilis CH11) (from UniProt O34482 21-375) (enzyme)	4	
B1		4.75
